{"source": "patent US20130115626A1", "about": "(Genentech, published 2013)", "binders": {"B1": {"name": "monoclonal anti-NRP1 antibody 7130 (antibody, V domains shown)", "VH": "QLVEESGGGLVTPGGTLTLTCTASGFTISNYHMSWVRQAPGKGLEWIGIIYAVSAATWSATWVKGRFTISKTLTTVDLKMTSLTAADTATYFCARVRAPGDSTYYDLWGPGTLVTVSS", "VL": "AVVMTQTASPVSAVVGGTVTINCQASQTISNNWLSWYQQKPGQPPKLLIYKASILASGVPSRFSGSGSGTEFTLTISGVQCDDAATYYCLYGHYITTSAHNAFGGGTEVVVKG", "notes": "Rabbit monoclonal antibody from a hybridoma (rabbit immunised with human soluble NRP1)"}}, "target": "T1, full length human NRP1 on transfected HEK-293 cells (human, UniProt O14786 22-923)", "T1 construct": "whole, on cells; also called HEK-293 cells transfected with human NRP1", "T1 sequence (O14786 22-923)": "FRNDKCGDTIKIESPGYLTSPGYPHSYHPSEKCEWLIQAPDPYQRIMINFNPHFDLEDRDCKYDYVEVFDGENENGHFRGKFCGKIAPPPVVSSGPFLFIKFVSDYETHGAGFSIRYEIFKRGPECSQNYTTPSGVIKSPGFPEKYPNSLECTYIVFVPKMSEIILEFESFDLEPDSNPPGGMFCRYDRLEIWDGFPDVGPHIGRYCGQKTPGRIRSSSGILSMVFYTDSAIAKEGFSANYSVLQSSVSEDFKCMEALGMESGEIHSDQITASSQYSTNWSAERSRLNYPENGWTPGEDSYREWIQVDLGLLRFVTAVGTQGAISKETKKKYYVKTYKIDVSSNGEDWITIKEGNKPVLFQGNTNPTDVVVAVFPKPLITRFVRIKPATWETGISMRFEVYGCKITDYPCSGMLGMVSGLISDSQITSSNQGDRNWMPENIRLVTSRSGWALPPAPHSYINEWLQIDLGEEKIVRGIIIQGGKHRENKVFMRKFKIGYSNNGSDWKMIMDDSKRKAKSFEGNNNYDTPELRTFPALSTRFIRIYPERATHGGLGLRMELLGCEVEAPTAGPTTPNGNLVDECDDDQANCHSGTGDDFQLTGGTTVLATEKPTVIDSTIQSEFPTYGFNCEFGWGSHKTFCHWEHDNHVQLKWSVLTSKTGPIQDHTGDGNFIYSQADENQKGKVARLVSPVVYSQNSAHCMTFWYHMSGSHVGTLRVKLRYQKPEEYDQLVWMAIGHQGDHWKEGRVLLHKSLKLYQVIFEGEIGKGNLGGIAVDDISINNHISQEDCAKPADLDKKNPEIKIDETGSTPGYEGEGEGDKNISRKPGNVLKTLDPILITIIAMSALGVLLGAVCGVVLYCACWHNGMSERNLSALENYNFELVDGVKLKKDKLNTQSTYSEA", "experiment": "immunohistochemistry on transfected HEK-293 cells, antibody at 1 ug/ml; cells with empty vector as negative control", "method": "Immunohistochemistry (IHC) was performed on freshly cut tissue sections following standard procedure. […] The specificity of the anti-NRP1 antibody was assessed using HEK-293 cells transfected with human NRP1 and empty vector as control (see FIGS. 1A and 1B). To assess expression, whole sections were scored semi-quantitatively on a scale of zero (no expression) to three (very strong signal), according to the intensity of chromagen deposition in ≧10% of neoplastic cells or endothelium."}
{"binder": "B1", "values": [{"measurement": "binding result", "value": "binds"}]}
